Measured values: publication PMC6650547 (2019)

Target: T1, His-SUDV-NP(34-367) (Sudan virus (SUDV), strain Boniface, UniProt Q9QP77 34-367)
T1 chain: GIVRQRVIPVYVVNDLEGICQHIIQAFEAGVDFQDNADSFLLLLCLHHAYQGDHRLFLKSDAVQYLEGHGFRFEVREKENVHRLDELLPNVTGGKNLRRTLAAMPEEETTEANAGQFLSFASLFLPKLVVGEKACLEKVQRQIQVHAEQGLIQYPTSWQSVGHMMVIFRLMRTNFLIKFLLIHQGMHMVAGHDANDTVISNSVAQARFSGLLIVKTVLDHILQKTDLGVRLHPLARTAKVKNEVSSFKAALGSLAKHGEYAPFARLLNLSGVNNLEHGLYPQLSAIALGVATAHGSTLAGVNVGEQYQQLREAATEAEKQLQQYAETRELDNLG
Assay: BLI

Binder MQQDRTYRHHGPEVSGWFSEQLMTGKIPLTEVFV [SUDV VP35 wild-type chaperone domain peptide (residues 1 to 34)] has a koff of 0.00583 s⁻¹.
